In US20140088174A1:

Assays:
[1] = molecular target: TGFBR1 (transforming growth factor, beta receptor I), endogenous in mouse cells (mouse) (UniProt Q64729); experiment: cell-based or functional assay
[2] = molecular target: ACVR1B (activin receptor type-1B), endogenous in mouse cells (mouse) (UniProt Q61271); experiment: cell-based or functional assay
Chain of UniProt Q61271 (Q61271 24-505): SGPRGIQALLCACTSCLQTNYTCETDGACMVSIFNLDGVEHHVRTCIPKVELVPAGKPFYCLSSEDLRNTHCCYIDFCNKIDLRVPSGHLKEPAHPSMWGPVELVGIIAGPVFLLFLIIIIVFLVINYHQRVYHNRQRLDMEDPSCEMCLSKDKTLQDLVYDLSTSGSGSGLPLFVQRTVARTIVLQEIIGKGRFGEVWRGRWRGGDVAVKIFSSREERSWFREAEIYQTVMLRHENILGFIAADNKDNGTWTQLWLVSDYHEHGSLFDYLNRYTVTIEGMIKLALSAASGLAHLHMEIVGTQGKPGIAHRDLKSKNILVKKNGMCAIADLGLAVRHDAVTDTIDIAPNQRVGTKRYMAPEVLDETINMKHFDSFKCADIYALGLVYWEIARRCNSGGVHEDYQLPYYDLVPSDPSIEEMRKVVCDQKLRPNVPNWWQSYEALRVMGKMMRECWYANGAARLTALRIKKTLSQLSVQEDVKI

Chain of UniProt Q64729 (Q64729 30-503): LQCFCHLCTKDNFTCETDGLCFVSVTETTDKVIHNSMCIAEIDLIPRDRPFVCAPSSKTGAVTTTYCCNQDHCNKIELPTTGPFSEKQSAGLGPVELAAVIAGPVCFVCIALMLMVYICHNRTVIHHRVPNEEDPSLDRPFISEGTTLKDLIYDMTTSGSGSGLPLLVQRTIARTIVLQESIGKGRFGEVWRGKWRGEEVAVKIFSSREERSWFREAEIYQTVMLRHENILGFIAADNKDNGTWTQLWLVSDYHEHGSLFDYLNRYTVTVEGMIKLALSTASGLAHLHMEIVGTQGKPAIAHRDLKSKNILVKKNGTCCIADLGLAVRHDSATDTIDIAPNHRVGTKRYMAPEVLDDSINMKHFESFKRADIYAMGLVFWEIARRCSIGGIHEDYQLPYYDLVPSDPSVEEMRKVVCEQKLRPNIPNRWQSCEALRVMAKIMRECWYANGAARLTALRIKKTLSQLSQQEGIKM

Substance	TGF-beta-mediated CAGA luciferase activity in C2C12 and C3H10 T1/2 cells upon siRNA knockdown of TGFBR1 [1]	myostatin-induced CAGA luciferase in C2C12 cells upon siRNA knockdown of ACVR1B [2]	myostatin-induced luciferase in C2C12 upon A4E6 AON transfection (fold decrease) [2]	myostatin-induced CAGA luciferase in C3H10 T1/2 cells upon siRNA knockdown of TGFBR1 [1]	myostatin-induced luciferase in C3H10 T1/2 cells upon TGFBR1 knockdown with A5E2 or A5E6 AON [1]
TGF-beta (ligand)	3 folds				
myostatin (from UniProt O14793 267-375) (ligand)		5 folds	3	2.5 folds	50%
